# Results from patent US20200087416A1 (Innovent, published 2020).
# Substitutions are numbered along the chain they refer to.
# B1: ADI-10085 (antibody, human IgG2, kappa, V domains shown)
# VH: QLQLQESGPGLVKPSETLSLTCTVSGGSIVSSSYYWAWIRQPPGKGLEWIGSINYKGSTYYNPSLKSRVTISVDTSKNQFSLKLSSVTAADTAVYYCARENSGVVPAAGPNWFGPWGQGTLVTVSS
# VL: EIVLTQSPATLSLSPGERATLSCRASQSVSSYLAWYQQKPGQAPRLLIYDASNRATGIPARFSGSGSGTDFTLTISSLEPEDFAVYYCQQRRNWFTFGGGTKVEIKR
# notes: IgG
# B2: ADI-10087 (antibody, human IgG2, kappa, V domains shown)
# VH: B1 VH with V30S, S32A, A37S, K56R
# VL: B1 VL
# notes: also called anti-PCSK antibody of the invention
# B3: ADI-10088 (antibody, human IgG2, kappa, V domains shown)
# VH: B1 VH with V30G, K56R, G114D
# VL: B1 VL
# notes: IgG
# B4: ADI-10089 (antibody, human IgG2, kappa, V domains shown)
# VH: B1 VH with V30G, A37T, K56R, G114D
# VL: B1 VL
# notes: IgG
# B5: ADI-10085 Fab (Fab, V domains shown)
# VH: B1 VH
# VL: B1 VL
# Molecular target: T1, human PCSK9 (PCSK9 antigen, SEQ ID NO. 53) (human, UniProt A8T644 31-152; Q8NBP7 153-692, Biotin-labelled on amines in the MSD-SET and sorting experiments; positions not given.)
# T1 construct: Biotin-labelled in MSD-SET; also called PCSK9-WT; PCSK9 protein
# Experiment: flow cytometry, PCSK9 left on CHO-LDLR cells (anti-His-FITC) after premix with 0.1 nM antibody
# For BODIPY-LDL uptake by HepG2 cells, fluorescence, 16.8 nM, replicate 1 in this document: unit not given here.
# For BODIPY-LDL uptake by HepG2 cells, fluorescence, 16.8 nM, replicate 2 in this document: unit not given here.
# For BODIPY-LDL uptake by HepG2 cells, fluorescence, 4.2 nM, replicate 1 in this document: unit not given here.
# For BODIPY-LDL uptake by HepG2 cells, fluorescence, 4.2 nM, replicate 2 in this document: unit not given here.
# For BODIPY-LDL uptake by HepG2 cells, fluorescence, 66.7 nM, replicate 1 in this document: unit not given here.
# For BODIPY-LDL uptake by HepG2 cells, fluorescence, 66.7 nM, replicate 2 in this document: unit not given here.
row,Fluorescence Signal Value,Binder
1,10400,B1
2,6860,B2
3,6800,B3
4,6890,B4

# Molecular target: T1, human PCSK9 (PCSK9 antigen, SEQ ID NO. …)
# Experiment: flow cytometry, PCSK9 left on CHO-LDLR cells (anti-His-FITC) after premix with 1000 nM antibody
row,Fluorescence Signal Value,Binder
1,5700,B1
2,5090,B2
3,5220,B3
4,5330,B4

# Molecular target: T1, human PCSK9 (PCSK9 antigen, SEQ ID NO. …)
# Experiment: cell-based or functional assay
row,fluorescence of BODIPY-LDL in HepG2 cells against no anti-PCSK9 antibody [times],Binder
1,~2,B1
2,~2,B2
3,~2,B3
4,~2,B4

# Molecular target: T1, human PCSK9 (PCSK9 antigen, SEQ ID NO. …)
# Experiment: flow cytometry, PCSK9 left on CHO-LDLR cells (anti-His-FITC) after premix with 10 nM antibody
row,Fluorescence Signal Value,Binder
1,5680,B1
2,5740,B2
3,5830,B3
4,5640,B4

# Molecular target: T1, human PCSK9 (PCSK9 antigen, SEQ ID NO. …)
# Experiment: ForteBio method and MSD-SET assay, as the sentence says; end tied to ADI-10085 by Table 2
# Protocol: (§1) Briefly, the sensor was equilibrated off-line in the assay buffer for 30 minutes, and then was tested on-line for 60 seconds to establish a baseline. The purified antibody obtained as described above was loaded online onto the AHQ sensor. The sensor was then placed in 100 nM of PCSK9 antigen for 5 minutes, then the sensor was transferred to assay buffer for dissociation for 5 minutes. The kinetic analysis was performed by using a 1:1 binding model.
row,Kd [pM],Binder
1,4,B5

# Molecular target: T2, murine PCSK-9 (murine, UniProt Q80W65 35-694)
# T2 construct: also called mouse PCSK9
# Experiment: MSD-SET, Fab with biotin-PCSK9 in solution, IgG on plate, pH 7.4
# Protocol: (§2) Anti-PCSK9 Fabs or mAbs obtained above were 3 to 5-fold serially diluted, and Fab or mAb solutions with concentrations of 5-100 nM were obtained. The antibodies (diluted in 20 nM phosphate buffered saline) were coated on MSD-ECL plates at 4° C. overnight or at room temperature for 30 minutes. 3% BSA was added, blocked at room temperature for 30 minutes at 700 rpm, and then washed 3 times with washing buffer (PBSF+0.05% Tween 20). The samples were added in the plate and placed in a shaker and incubated at room temperature at 700 rpm for 150 seconds, and then washed once. 250 ng/ml of sulfotag-labeled streptavidin (diluted in PBSF) was added and incubated at room temperature for 3 minutes. After washing 3 times with buffer, the antigen bound to the plate was determined using MSD Sector Imager 2400 Reader Device. The percentage of unbound antigen was obtained by antibody titration method.
row,Kd [nM],Binder
1,0.041,B5

# Molecular target: T1, human PCSK9 (PCSK9 antigen, SEQ ID NO. …)
# Experiment: as above
# Protocol: as §2
row,Kd [pM],Binder
1,4.2,B5

# Molecular target: T1, human PCSK9 (PCSK9 antigen, SEQ ID NO. …)
# Experiment: flow cytometry, PCSK9 left on CHO-LDLR cells (anti-His-FITC) after premix with 100 nM antibody
row,Fluorescence Signal Value,Binder
1,5090,B1
2,5260,B2
3,5160,B3
4,5140,B4

# Molecular target: T2, murine PCSK-9
# Experiment: BLI (ForteBio), IgG on AHQ sensor, 100 nM antigen
# Protocol: as §1
row,Kd [nM],Binder
1,0.544,B1
2,0.558,B2
3,0.855,B3
4,0.589,B4

# Molecular target: T1, human PCSK9 (PCSK9 antigen, SEQ ID NO. …)
# Experiment: BLI (ForteBio), IgG on AHQ sensor, 100 nM antigen
# Protocol: as §1
row,Kd [nM],Binder
1,0.295,B1
2,0.296,B2
3,0.471,B3
4,0.311,B4

# Molecular target: T1, human PCSK9 (PCSK9 antigen, SEQ ID NO. …)
# Experiment: MSD-SET, Fab with biotin-PCSK9 in solution, IgG on plate, pH 6.0
row,Kd [pM],Binder
1,5.9,B5

# Molecular target: T1, human PCSK9 (PCSK9 antigen, SEQ ID NO. …)
# Experiment: cell-based or functional assay
# Remark: another data set of the same source
"BODIPY-LDL uptake by HepG2 cells, fluorescence, 4.2 nM, replicate 1","BODIPY-LDL uptake by HepG2 cells, fluorescence, 4.2 nM, replicate 2","BODIPY-LDL uptake by HepG2 cells, fluorescence, 16.8 nM, replicate 1","BODIPY-LDL uptake by HepG2 cells, fluorescence, 16.8 nM, replicate 2","BODIPY-LDL uptake by HepG2 cells, fluorescence, 66.7 nM, replicate 1","BODIPY-LDL uptake by HepG2 cells, fluorescence, 66.7 nM, replicate 2",Binder
0.423,0.435,0.78,0.742,0.749,0.797,B1
0.37,0.403,0.72,0.683,0.758,0.775,B2
0.357,0.401,0.574,0.561,0.706,0.752,B3
0.38,0.399,0.712,0.706,0.774,0.741,B4

# Molecular target: T1, human PCSK9 (PCSK9 antigen, SEQ ID NO. …)
# Experiment: flow cytometry, PCSK9 left on CHO-LDLR cells (anti-His-FITC) after premix with 1 nM antibody
row,Fluorescence Signal Value,Binder
1,8910,B1
2,6480,B2
3,6830,B3
4,6500,B4
